To fix the notation:
B1: MGD35 (antibody)
VH: QVQLQESGPGLVKPSGTLSLTCAVSGASISSINWWSWVRQTPEKGLEWIGQIHHNGSTNYNPSLKSRVAISVDKSKNQFSLKLTSFTAADTAVYYCATASSLKSQRDTNLPRPSLSAEPGTVIPLGSPVTFVCRGPVGVHTFRLERAGRSTYNDTEDVSHPSPSESEARFRIDSVSEGNAGPYRCVYYKSSKWSEESYCLDLLVKTEDVTWARPQPQLDPRACPQGDLRISTDFYYMDVWGKGTTVTVSS
VL: AIRMTQSPSSLSASTGDRVTITCRTSQAIGTYLAWYQQNPGKAPNLLIYNASTLQSGVPSRFSASGSGTDFTLTISGLQSDDFVTYFCQHYYNYPPAFGQGTRLEIQ
B2: MGC2 (antibody)
VH: EVQLVESGGGLVQPGGSLRLSCAASGFTFSNFWMGWVRQTPGKGLEWVANIKEDGSEKYYVDSVRGRFTISRDSAKNSLYLQMNSLRAEDTAVYYCVRERFCSNHIHKEEHLPRPSISPEPGTVITLGSHVTFVCRGPVGVQTFRLEKDSRSTYNDTEDVSQPSPSESEARFRIDSVSEGYAGLYRCLYYKPPKWSEQSDYLELLVKGDDVTWALYPSCGGDGEASDYNMDVWGKGTTVTVSS
VL: DIQMTQSPSTLSASVGDRVTISCRASQRFSGWLAWYQQKPGKAPNLLIYKASPLAGGGPSRFSGSGSGTDFTLTISSLQPDDSATYYCQHYSNYSYTFGQGTKLEIR
B3: MGC35 (antibody)
VH: EVQLVESGGGLVQPGGSLRLSCEASGFNSRSYWMTWVRQAPGKGLEWVASINQDATEKNYVDSVKGRFTISRDTAKNSLYLQMNSLRAEDTAVYYCARDRFCGGESHLHGQEDLPRPSISAEPGSVIPLGSLVTFVCRGPVGVHTFRLERGWTYNDTEDVSQAGPSESEARFRMDSVREGNAGLYRCIYYKPPKWSEQSAYLELRVKGGDVTWALLTYCGGDGEESDYPMDVWGKGTTVTVSS
VL: QTVVTQEPSLTVSPGGTVTLTCASSTGPVTSAYYPNWFQQKPGQAPRSLIYNINKKHSWTPDRFSGSLLGGKAALTLSGVQPEDEADYYCLLSCGGAQPWVFGGGTKLTVQ
B4: MGC36 (antibody)
VH: EVVLVESGGGLVQPGGSLRLSCEASGFNSRSYWMTWVRQAPGKGLEWVASINQDGTEKNYVDSVKGRFTISRDSAKNSLYLQMSSLRADDTAVYYCARDRFCGGESHLHGEEDLPRPSISAEPDTVIPLGSHVTFVCRGPVGVHTFRLERGWRYNDTEDVSQAGPSESEARFRIDSVREGNAGLYRCIYYIAPKWSEQSDYLELRVKGGDVTWALLTYCGGDGEESDYPMDVWGKGTTVTVSS
VL: B3 VL with N52S, D62A
B5: MGD34 (antibody)
VH: EVQLVESGPGLMKTSGTLSLTCAVSGDYVNTNRRWSWVRQAPGKGLEWIGEVHQSGRTNYNPSLKSRVTISVDKSKNQFSLKVDSVTAADTAVYYCARASPLKSQRDTEDLPRPSISAEPGTVIPLGSHVTFVCRGPVGVQTFRLERERNYLYSDTEDVSQTSPSESEARFRIDSVNAGNAGLFRCIYYKSRKWSEQSDYLELVVKGEDVTWALSQSQVDPRACPQGELPISTDIYYVDVWGNGTTFTVSS
VL: AIRMTQSPSSLSASPGDKVSITCRASQHINDSLAWFQQRPGKAPKLLIYGASNLHSGVPSRFSGTGSGTDFTLTITGLQSEDFATYFCQQCNCFPPDFGQGTRLEIK
B6: MGD23 (antibody)
VH: QVQLQESGPGLVKPSGTLSLTCSVSGGSISSNKWWSWVRQSPGKGLEWIGEVYQTGITNYNPSLKGRVTMSVDKSKNQFSLRLTSVTAADTAVYYCATISQLRPQGDTEDLPRPSLSAEPGTVIPLGSHVTFVCRGPAGVETFRLERESRFTYNDTEDVSQASPSESEARFRIDSVSEGNAGPYRCLYYKARKWSDQSDYLELLVKGADVTWALPQSQLAPRACPQGELRISTDVFSMNVWGNGTTVTVSS
VL: AVRVTQSPTSLSASTGDRVTITCRTSQYVGNYLDWYQQKPGKAPKLLIHGVSTLQNGVPSRFSGSASGTDFTLNITCLQSEDSATYYCQQYYTSPPDFGQGTRLEIK
B7: MGC1 (antibody)
VH: EVQLVESGGGLVQPGGSLRLSCVASGFNFRKSWMGWVRQAPGKGLEWVANIREDGSESFYADSVKGRFTVSRDNAKKSLYLHINSLRAEDTAVYYCARDRFCNDDEIHRHGQEDLPRPSISAAEGTVIPLGSHVTFVCRGPVGVQTFRLEKDSRSIYNDTENVSQPSPSESEARFRIDSVSEGNAGLYRCVYYKAPKWSAQSDYLELLVKGQEVTWALFTSCGGDGEEPDYDMDVRGKGTTVTVSS
VL: DIVMTQSPDSLAVSLGERATINCKSSQSVLYRSKNKNYLAWFQQKPGQPPKVLIYSTSTRASGVPDRFTGSGSGTDFTLTISSLQAEDVAVYYCLQYYITPYTFGQGTKLEIK
B8: MGC37 (antibody)
VH: EVQLVESGGDLVQPGGSLRLSCAASGFTFRNYWMSWVRQTPGKGLEWVANIRQDGSEKYYVDSVKGRFTISRDNAKNLLYLQMNSLRAEDTAVYYCVRDKFCSDENHMHVADDLPRPSISPEPGTVIPLGSHVTFVCRGPVGVQTFRLEKDRRSTYNDTEDVSQPSPSESEARFRIDSVTEGNAGLYRCVYYKPPKWSDQSDFLELLVKGEDVTWALFPHCGADGEDSDYYMDVWGKGTTVTVSS
VL: DIQLTQSPSTLSASVGDRVTISCRASQRLSRSLAWYQQRPRKAPNLLIYKASPLEIGGPSRFTGSGSGTEFTLTISSLQPDDSATYYCQQYSNYSYSFGQGTKLEIR
B9: MGD30 (antibody)
VH: QVQLQESGPGLVKPSETLSLSCAVTGGSITSSKWWTWVRQGPDKGLEWIGKIYHNGTTNYNPSLKSRVAMSVDKSRNQFSLRLTSVTAADTALYYCATASPFKSHHRTTEKLPRPSISAEPGTVIPLGSRVTFVCRGPVGVQTFRLERETSFTYNDTEDVSQVSPSESEARFRIDSVSEGYAGPYRCVYYKAPKWSEQSDYLDLLVKGEDVTWALTQPQLDPRACPQGDLRMSTDIYCMDVWGKGTTVTVSS
VL: AIRLTQSPSSLSASIGDRVTITCRASQDISTFLAWYQQESGKAPRLLIFAASTLQTGVPSRFSGSGSGTDFTLTISGLQSEDFATYYCQQYYCFPPDFGQGTRLDIK
B10: MGD33 (antibody)
VH: B9 VH with Q1H, R76K, L93V, S151R, F152S
VL: B9 VL with F32Y, T53S

Positions count from the first letter of the chain named.

In one assay the target is erythrocytes infected with P. falciparum field isolate 11019. In words: flow cytometry, staining of IEs. (A flow cytometer gives signals particle by particle.)
B1 showed a % parasite recognition of 6.3%.

Take B2: the % parasite recognition amounted to 11.9%.

Molecule B3 displayed a % parasite recognition of 3.2%.

The molecule B4 showed a % parasite recognition of 17.9%.

In turn, B5 gave a % parasite recognition of 46.6%.

Molecule B6 showed a % parasite recognition of 7.8%.

Turning to B7, the % parasite recognition was 32.7%.

Turning to B8, the % parasite recognition amounted to 51.8%.

In the case of B9, the % parasite recognition was found to be 4.4%.

The molecule B10 showed a % parasite recognition of 9.6%.

The target in the next assay is erythrocytes infected with P. falciparum field isolate 11014. In words: flow cytometry, staining of IEs.
Molecule B2 gave a % parasite recognition of 1.5%.

As to B3, the % parasite recognition was determined as 3.6%.

B4 gave a % parasite recognition of 4.6%.

B5 had a % parasite recognition of 13%.

B6 had a % parasite recognition of 6.3%.

B7 registered a % parasite recognition of 3.4%.

The molecule B8 displayed a % parasite recognition of 5.8%.

On to B9, for which the % parasite recognition is 3.4%.

With B10, the % parasite recognition amounted to 7%.

The target of another assay is erythrocytes infected with P. falciparum field isolate 10975. Kind of assay: flow cytometry, staining of IEs.
Regarding B2, the % parasite recognition was determined as 2.6%.

The molecule B3 displayed a % parasite recognition of 7.4%.

Take B4: the % parasite recognition was found to be 8.6%.

Molecule B5 displayed a % parasite recognition of 11.2%.

The molecule B6 showed a % parasite recognition of 3.4%.

Take B7: the % parasite recognition was 1.4%.

In turn, B8 returned a % parasite recognition of 7.5%.

B9 showed a % parasite recognition of 6.5%.

For the molecule B10, the % parasite recognition came out at 14.2%.

In another assay the target is erythrocytes infected with P. falciparum field isolate 9106. Kind of assay: flow cytometry, staining of IEs.
B1 yielded a % parasite recognition of 6.1%.

For B2, the % parasite recognition turned out to be 5.6%.

As for B3, the % parasite recognition stood at 6.5%.

As to B4, the % parasite recognition was determined as 6.9%.

In turn, B5 gave a % parasite recognition of 5%.

Take B6: the % parasite recognition was 5.7%.

In turn, B7 came in with a % parasite recognition of 6.7%.

B8: the % parasite recognition was 7.2%.

Molecule B9 gave a % parasite recognition of 4.2%.

For B10, the % parasite recognition is 4.3%.

The next assay has as its target erythrocytes infected with P. falciparum field isolate 9215. In words: flow cytometry, staining of IEs.
For B2, the % parasite recognition came out at 28.8%.

In the case of B3, the % parasite recognition amounted to 19.5%.

As to B4, the % parasite recognition came out at 12.4%.

The molecule B5 displayed a % parasite recognition of 35.7%.

B6 displayed a % parasite recognition of 11.4%.

B7 gave a % parasite recognition of 14.9%.

For B8, the % parasite recognition was 9.9%.

In turn, B9 came in with a % parasite recognition of 9%.

In turn, B10 had a % parasite recognition of 15.5%.

In a further assay the target is erythrocytes infected with P. falciparum field isolate 10936. Kind of assay: flow cytometry, staining of IEs.
The molecule B2 gave a % parasite recognition of 2.8%.

In turn, B3 displayed a % parasite recognition of 2.5%.

With B4, the % parasite recognition was found to be 2.7%.

Molecule B5 gave a % parasite recognition of 8.1%.

Regarding B6, the % parasite recognition is 4.3%.

Regarding B7, the % parasite recognition worked out at 2%.

Take B8: the % parasite recognition worked out at 4.1%.

B9: the % parasite recognition came to 2.6%.

With B10, the % parasite recognition was 6.1%.

The target of another assay is erythrocytes infected with P. falciparum field isolate 9605. In words: flow cytometry, staining of IEs.
Take B1: the % parasite recognition amounted to 3.6%.

Molecule B2 returned a % parasite recognition of 22.4%.

B3 had a % parasite recognition of 15.9%.

In turn, B4 came in with a % parasite recognition of 17.9%.

In turn, B5 returned a % parasite recognition of 28.4%.

Take B6: the % parasite recognition was 14.7%.

Regarding B7, the % parasite recognition is 19.5%.

Regarding B8, the % parasite recognition came to 22.2%.

As for B9, the % parasite recognition is 7.4%.

Molecule B10 showed a % parasite recognition of 12.3%.

In the next assay the target is erythrocytes infected with P. falciparum field isolate 9775. Kind of assay: flow cytometry, staining of IEs.
B2 gave a % parasite recognition of 2.9%.

With B3, the % parasite recognition was 7.2%.

As for B4, the % parasite recognition stood at 6.2%.

Molecule B5 registered a % parasite recognition of 16%.

Molecule B6 showed a % parasite recognition of 7.3%.

Regarding B7, the % parasite recognition was found to be 5.7%.

Molecule B8 gave a % parasite recognition of 4%.

Regarding B9, the % parasite recognition turned out to be 5.6%.

Regarding B10, the % parasite recognition was 8.5%.

For the origin of these results see US20180186897A1 (INSTITUTE FOR RESEARCH IN BIOMEDICINE, published 2018).
